± gives the standard deviation.
Assay: protein stability index of a GFP-peptide fusion (GPS, HEK-293T) (PSI 1-6); higher = more stable
Details: c terminus: a fixed tail appended
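Also: 24-mer peptide tiles fused after GFP, lentivirally expressed, FACS-sorted into six equal bins by GFP/DsRed ratio, decoded by Illumina sequencing, PSI is the read-weighted mean bin number.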

| Sequence | protein stability index (treatment: DMSO) | protein stability index (treatment: MLN4924 1 uM, 8 h) |
| --- | --- | --- |
| QLMEKLREKQLSHSLRAVSTDPPH [BEX1] | 3.35 ± 0.37 | 3.27 ± 0.34 |
| ERAKMSSSEVGPFVSKIRAVINDI [AUH] | 2.76 ± 0.14 | 2.86 ± 0.31 |
| LLEDMRASEAFHWDERGRAAAYSP [ANKRD9] | 2.7 ± 0.44 | 3.18 ± 0.54 |
| ECMLLVFGIDVKEVDPTGHSFVLV [MAGEA10] | 2.82 ± 0.44 | 2.8 ± 0.66 |
| VGITVLNLCALSVDRYRAVASWSR [EDNRA] | 2.86 ± 0.66 | 2.87 ± 0.6 |
| AERLRAELLDLKAGGFSIRNQKGE [MYORG] | 4.1 ± 0.26 | 4.24 ± 0.29 |
| VHVSESSDDDEEEEENIGCEEKAK [ACBD3] | 5.55 ± 0.32 | 5.62 ± 0.12 |
| CSCQADPRHQGHRVQPVKDTAHDF [TRIM35] | 3.42 ± 0.31 | 3.56 ± 0.14 |
| MCVAQVLTAHLLPPRQALGSLCSP [YPEL3] | 2.8 ± 0.93 | 2.8 ± 0.35 |
| RVGKWHQDFPVKKRKKLSTWKQEL [ZNF75A] | 2.7 ± 0.29 | 2.92 ± 0.4 |
| PGRSSVASPRRLSNVSSSGSINLL [MAP2] | 3.63 ± 0.16 | 3.48 ± 0.16 |
| QGLRPRTVSSPIPYTPSPSSSRPI [CCDC6] | 4.64 ± 0.22 | 4.7 ± 0.16 |
| ELKKAAYDIEVNTRRAQADLAYQL [FLOT1] | 3.2 ± 0.32 | 3.3 ± 0.32 |
| MDERLSLLRSPPPPSARHRAHPPQ [KCNA3] | 4.55 ± 0.23 | 4.44 ± 0.19 |
| VRLAARQEDAPMIEPLVPEEKMET [EPB41L3] | 4.9 ± 0.16 | 5.17 ± 0.24 |
| MRPTLIDLLPTFRHTLQKLTCEFN [FBXO39] | 2.35 ± 0.31 | 2.44 ± 0.54 |
| DNLLRSTQKLSHSTKPSGSPLEEK [MATN2] | 5.31 ± 0.37 | 5.07 ± 0.37 |
| AGEDNDDLIDNLKEAQYIRTERVE [PCMTD1] | 5.08 ± 0.18 | 5.15 ± 0.26 |
| SVAPMNVRRGLAGATTLGDMIYVS [KLHL12] | 2.78 ± 0.53 | 2.96 ± 0.5 |
| SVSLDRCIKIWDVTSQATLLTITK [WDR88] | 2.43 ± 0.2 | 2.43 ± 0.21 |
| LKEMYDADLLEEEVIISWSEKASK [EIF5] | 3.33 ± 0.45 | 3.88 ± 0.44 |
| TGANTKKPEDTAEDLTAKRKRMKM [FAM9B] | 5.4 ± 0.28 | 5.15 ± 0.51 |
| EDLTAKRKRMKMDKTCSKTKNKSK [FAM9B] | 4.98 ± 0.43 | 5.16 ± 0.34 |

| Sequence | protein stability index (treatment: DMSO) | protein stability index (treatment: MLN4924 1 uM, 8 h) |
| --- | --- | --- |
| NDTDFRVYLLGNPVVWWLNLLSIA [POMT2] | 2.89 ± 0.48 | 3.11 ± 0.47 |
| YKEKFGITDLPRIDVSKREPPPVK [EFHC1] | 3.67 ± 0.38 | 4.04 ± 0.23 |
| FKMPWKPTHPSSTHALAEWASRRE [CDC25B] | 3.54 ± 0.12 | 3.63 ± 0.36 |
| RCVLVFEQVRFLMKSYSFLREAVP [SOAT2] | 2.54 ± 0.42 | 2.8 ± 0.38 |
| DLTVGRAPTADDDDDDHDDHEDND [NOL4L] | 5.56 ± 0.18 | 5.5 ± 0.15 |
| ACRVTELQQQPLCTSVNTIYDNAV [LRRC59] | 2.68 ± 0.4 | 2.61 ± 0.25 |
| DSHYGTKGLKKVVHETPAASKTVF [BTBD1] | 4.05 ± 0.095 | 4.14 ± 0.28 |
| LCEKAKEILTKESNVQEVRCPVTV [PPP2CA] | 4.11 ± 0.32 | 4.44 ± 0.19 |
| KLALDMEISAYRKLLQGEEERLKL [LMNB1] | 3.24 ± 0.23 | 3.28 ± 0.36 |
| PLSDKGTTPLQLAIIRERSSCVKI [ASB7] | 2.64 ± 0.22 | 2.81 ± 0.4 |
| ARKGKGAFCNGQKLQVSQQEDITK [IMPA1] | 4.46 ± 0.18 | 4.67 ± 0.18 |
| VLEHSLDREEEAIHHLVLTASDGG [PCDHGA10] | 4.66 ± 0.18 | 4.84 ± 0.17 |
| TALPPMNEARHNFGIVEIDGMLYI [GAN] | 2.24 ± 0.31 | 2.08 ± 0.26 |
| DNPANRSLVLPWSFPLEWAPQNLT [TOR1AIP2] | 2.87 ± 0.23 | 2.79 ± 0.17 |
| VEAVKNELRRQAPPPPPPSRGGPP [WASL] | 4.91 ± 0.29 | 4.92 ± 0.078 |
| TKGHPRAVSQPFRLSSSLQGSAVT [CDC14A] | 3.49 ± 0.41 | 3.54 ± 0.28 |
| GKIRRGAYALPAGLSAPARCLVRC [TRIB3] | 2.47 ± 0.23 | 2.7 ± 0.33 |
| SCLRRRRHPPKVGDDSDLSEGFES [SMG5] | 5.02 ± 0.32 | 4.93 ± 0.058 |
| ALRAQRASSNVFSNFEQTQIQEFK [MYL5] | 4.07 ± 0.27 | 3.93 ± 0.23 |
| DSKIAFLMQLQDIQYLTENIWASQ [IQUB] | 2.9 ± 0.64 | 2.46 ± 0.62 |
| EKPYKCPECGEIFAHSSNLLRHQR [ZNF263] | 3.07 ± 0.86 | 3.76 ± 0.93 |
| NSSQSSSDGSCKTAGEMVFVYENA [BTBD10] | 4.22 ± 0.3 | 4.15 ± 0.22 |
| KCLQLLGNLGSLEKSVTKDAEGLA [INTS4] | 2.82 ± 0.46 | 3.08 ± 0.099 |

| Sequence | protein stability index (treatment: DMSO) | protein stability index (treatment: MLN4924 1 uM, 8 h) |
| --- | --- | --- |
| LSDEDDGFVDLLDGENLKNEEETP [CDC25A] | 5.48 ± 0.33 | 5.4 ± 0.31 |
| KCRMEESNAERGTAEPFPRLHNLY [CBY2] | 2.85 ± 0.27 | 2.78 ± 0.15 |
| HEQALFIYVHILKDTRMAEEYCHK [VPS39] | 2.57 ± 0.62 | 2.4 ± 0.59 |
| ALREENRMLSKENKILQVFWEEHK [CBY2] | 3.19 ± 0.12 | 3.28 ± 0.3 |
| EVSQQDPSHGEVGEHKDRIERQWG [ZSCAN9] | 4.69 ± 0.18 | 4.95 ± 0.15 |
| LGGAAFLGTAIFIEADRRRAQLHV [SPNS1] | 2.35 ± 0.74 | 2.32 ± 0.53 |
| FDSSRQRAEGTDIPTVKPLKPRPE [ZC2HC1A] | 5.02 ± 0.099 | 5.09 ± 0.14 |
| LGQEFDEVTADDRKVKSTITLDGG [FABP4] | 5.16 ± 0.21 | 5.32 ± 0.33 |
| NPPAQPAPNAWQVIKGVLFRIFII [CLPTM1] | 1.9 ± 0.18 | 2.09 ± 0.15 |
| EGPDLVPAALGSLTTAQIARSVWR [HES6] | 3.33 ± 0.39 | 3.59 ± 0.34 |
| EQIHLLLSSQCFSNISRPRDNPMC [M1AP] | 2.25 ± 0.43 | 2.33 ± 0.25 |
| DFFIVGCEVIFCVFIFYYVVEEIL [PKD2L1] | 1.92 ± 0.47 | 2 ± 0.3 |
| MSAQSVEEDSILIIPTPDEEEKIL [ZNF24] | 5.08 ± 0.19 | 5.23 ± 0.1 |
| LALLLCAGQVTALPVNSPMNKGDT [CHGA] | 2.68 ± 0.83 | 2.59 ± 0.5 |
| PEKRTQYFDPLRNEYFFDRNRPSF [KCNA4] | 2.74 ± 0.25 | 3.03 ± 0.13 |
| GDPEEIRMLIHKTEDVNTLDSEKR [ANKRD44] | 5.51 ± 0.16 | 5.33 ± 0.33 |
| TEPDYKSKDWVFLNYTYKRFEGLT [STK38L] | 1.92 ± 0.19 | 2.39 ± 0.59 |
| DNMYRLAHFSPFLYYQSQELPNGS [PDZK1] | 2.12 ± 0.22 | 2.33 ± 0.23 |
| FVLQAIGIPGWGFSGWISALVVPK [SCAMP3] | 3.08 ± 0.53 | 2.88 ± 0.37 |
| SSGEDKENDGFVFKMPWKPTHPSS [CDC25B] | 3.92 ± 0.22 | 4.16 ± 0.25 |
| SPVTATLSDEDDGFVDLLDGENLK [CDC25A] | 5.4 ± 0.21 | 5.52 ± 0.13 |
| AAEMYQRGRAVLREAGFHQYEVSN [RSAD1] | 3.32 ± 0.3 | 3.29 ± 0.24 |
| PSSGPVTPQPTALTFAKSSWARQE [AUP1] | 4.2 ± 0.29 | 4.27 ± 0.24 |

| Sequence | protein stability index (treatment: DMSO) | protein stability index (treatment: MLN4924 1 uM, 8 h) |
| --- | --- | --- |
| MEESKAKFENLCKLMKEILDKKVE [HSP90AB1] | 3.34 ± 0.28 | 3.29 ± 0.19 |
| MSGSCAVCVDRVLYLFGGHHSRGN [KLHDC2] | 2.35 ± 0.55 | 1.75 ± 0.36 |
| MRRQEPLPPPPPPSRGGNQLPRPP [WAS] | 4.8 ± 0.18 | 4.89 ± 0.17 |
| DPKKLLTQHFVQENYLEYRQVPGS [MAGEA3] | 3.62 ± 0.22 | 3.76 ± 0.13 |
| DLENRCQSLTEDLEFRKSMYEEEI [LMNB1] | 4.91 ± 0.056 | 4.76 ± 0.13 |
| ELERKLREVMESAVGNSSGSGQNE [FBXO28] | 4.11 ± 0.19 | 4.24 ± 0.38 |
| EQELYNNFVYNSPRGYFHTFAGDT [WASL] | 2.73 ± 0.21 | 2.78 ± 0.32 |
| QASAAPAAPLPERNSLSAIFNNVM [SLC29A1] | 3.55 ± 0.094 | 3.5 ± 0.14 |
| GGWFCEGSFNGSEKETMQFLNDRL [KRT36] | 3.27 ± 0.23 | 3.17 ± 0.41 |
| SDNILSPVMNGGVQTWTQPRLCYL [PDZK1] | 2.19 ± 0.31 | 2.46 ± 0.56 |
| DVESGQLLQSFHGHGADVLCLDLA [GNB5] | 3.69 ± 0.28 | 3.81 ± 0.31 |
| SWTTVTSMTTPRCYVGATVLRGRL [KLHL12] | 2.23 ± 0.15 | 2.24 ± 0.35 |
| MGPYNPDTCPEVGFFDVLGNDRRR [ACBD3] | 4.08 ± 0.37 | 4.02 ± 0.35 |
| QDVDPVHNLIEQVSLGLGQPWHAV [FBXO33] | 2.75 ± 0.17 | 2.55 ± 0.18 |
| ENMDLNKIDDLMQEITEQQDIAQE [CHMP4C] | 5.6 ± 0.27 | 5.4 ± 0.24 |
| EEAKGLLDKVKDGGYRPAEDKIFP [ZBED1] | 4.84 ± 0.3 | 4.78 ± 0.41 |
| YPQDLPRPLRSREFPQFEPQRYPA [TRAF3IP2] | 3.93 ± 0.3 | 3.6 ± 0.41 |
| RGHMPEWYTKSFGHLCAAEVVKIR [DLC1] | 2.08 ± 0.23 | 2.42 ± 0.32 |
| RPYMCKECGKAFSQNSSLVQHERI [ZNF8] | 2.82 ± 0.16 | 3.24 ± 0.45 |
| QPSKSHKKVLKKMLKFLAKGEVPK [ATE1] | 2.13 ± 0.36 | 2.26 ± 0.58 |

From the supplement of paper PMC10567573
